# Test system: MS2 coat protein
# Experiment: apparent KD of MS2 coat protein; higher = weaker reporter binding
# Details: Eterna round: R107; input ligand: theophylline 2 mM
# Outline: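 The designed RNA switches were transcribed on-chip from Illumina sequencing clusters. In 100 mM Tris-HCl pH 7.5, 80 mM KCl and 4 mM MgCl2, without or with constant ligand, they were titrated with SNAP-549-labelled MS2 coat protein from 0.7 or 1.5 nM to 3 µM in twofold steps. Apparent KD is the per-design median of normalised cluster binding-curve fits.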
row,Sequence,apparent KD of MS2 coat protein [nM]
1,UGUAUGGACUGAAGGAGCGGGUAAAUAACUUGAGGAUCACCCAGGUAAAAGGCGAAAGCCACCCAGGUAGGUCGCAGUCCAUACU,29.2
2,UGCCUAAAGUCGGCCGCCACUGAUGGUAUCCUCUCCUCGAGGUCACACAUGAGGAUCACCCAUGUCAGGACCGGGACUAGUGAGA [theeternabot_exclusion_MS2_Trp_B_36],7.48
3,GAGGACAUGAGGAUCACCCAUGUAAAUGAUACCAGUUGAGAGAGAGGCCCUUGGCAGCGUAAACAUGACAGCGAGCGAGAGUGCG [ss-theoA-0],15.3
4,CAAAAUGCGGCGGCCGCCACUCAGCUCCGUGUGGUUGGUCAUCUUAACAUGAGGAUCACCCAUGUGAGGACCGGGCCAGCGAGUG [theeternabot_exclusion_MS2_Trp_B_38],17
5,CACGGACGAGUGGAUCACCCUUGUAAUAACCGAGGACCGGUACGGCCGCCACUCGAAAACCGUGACCUGUACGAAAAGUGCAGGA,466
6,CGGGACAUGAGGAUCACCCAUGUACGAUCCCGAGGACCGGUACGGCCGCCACUCGCUAGCGUUGAGUCGCGACUUUCAUAACUAA [theeternabot_sameState_MS2_Trp_A_27],83.2
7,CCCAGUUAUAUCAAAGGAAUUAUACUCGAAGGAGCGUCAUAGUAGGCAGGUAGGUCGCGAGACAUGAGGAUCACCCAUGUAGAGA [pxpmullin],34.5
8,GGAUAGGACAGAAGGAGCGUGAGAUGCAAAGCAUCAUUCCUCACAUGAGGAUCACCCAUGUCACAGGUAGGUCGCUGUCCUAUCG [ArgBX 4],110

# Same assay, conditions: Eterna round: R107; input ligand: tryptophan 2.4 mM
row,Sequence,apparent KD of MS2 coat protein [nM]
1,UCGCUCGCCGCAAGGCGAGCGAGUUGCGAUACCAGCCCGGAAACGGGCCCUUGGCAGCGCACAUGAGGAUCACCCAUGUCAUGUU [#1 Exclusion - Theophylline A Attempt #4 (HarryS)],16.1
2,ACAUACAUGAGGAUCACCCAUGUCCAUGUUCGAGGACCGGUACGGCCGCCACUCGCGCGACAGCAUGAGGAACUUGAGGAUCACA [Exclusion Tryptophan A],48.8
3,AAAAUAAAAGGUGCAAAAUCCUAAUGUGAAGGAGCGCACGAAAGUGCAGGUAGGUCGCACAUGAGGAUCACCCAUGUAGCACCAA [ArgEX 4 #SwitchBubble],147
4,CAUUAAGUAACUGAUACCAGUGUACUGACAUGAGGAUCACCCAUGUUGGGUUUUGUUGUACACCCUUGGCAGCAGAAUCUUAAUG [AstrosExyTheB#3],62.2
5,AAGACUGGACAUAAGUCCAGUCAACCUGAAGGAGCGGGUGGGUGCCCAGGUAGGUCGCGGGAACAUGAGGAUCACCCAUGUAUAA [ArgAS 5 #BothOrNeither #OpenEnded],24.6
6,AGGAGACAUGAGGAUCACCCAUGUCCAGAUACCAGAAUGUCUUUGUUCCCUUGGCAGCUGUGGAAAUCUGACCUGCCUCGGUCUG [theeternabot_sameState_MS2_Theo_A_31],15.2
7,AAAAGACAUGAGGAUCACCCAUGUAGAGAUACCAGAUGCAUGGACAUCCCUUGGCAGCUCGUCACUUUCUAUAUUUUCCAGACGC [theeternabot_sameState_MS2_Theo_A_37],59.1
8,GGUGGCUGGAUCGAUACCAGCCACCACCGAUAGACCACAUGAGGAUCACCCAUGUUGGGUGGCCCUUGGCAGCGGUCCGGCUGCC [#1 Same State - Theophylline B Attempt #7 (HarryS)],759
9,GUACAUGAGGAUCACCCAUGUAUAGUUGAAGGAGCGACCGGAGGGUCAGGUAGGUCGCAGCACAUGGCGUCAACCCGUGUAUGCC [#1 Exclusion - Arginine A Attempt #25 (Inspired by Pi)],18.6
10,GAGACGUCGGGAAGGAGCGCAUCCAAACCACACAUGAGGAUCACCCAUGUAUAAAUAUGCAUGCAGGUAGGUCGCCCGGUGUCCA [Xegeisge],86.1
11,ACUAGAGGUGGAAGGAGCGGGAGACAUGAGGAUCACCCAUGUGAAGUUUCGAGAGGAUCAUCCCAGGUAGGUCGCCAUGUCGAAA [vvbvmullin],43.7
12,UAAAACAUGAGGAUCACCCAUGUAAUUGAUACCAGAGUGAUGAUCCUCCCUUGGCAGCAAAUAACGCAUUGGAAACAAUGCGAAA [Mat - Same State Theophlline A - Mod of Eli - D26],47.8
13,UACAUGAGGAUCACCCAUGUCUGAACUGAAGGAGCGCUAAAUAAGGCAGGUAGGUCGCGGAAUUUUGUGUGCAUAUGCAUAUGGG [9.L],38.2
14,GAUCUUGCGGGCGCCCGCAAGGUUGCGGAUACCAGCGAGAUUAAUCGCCCUUGGCAGCCGAACAUGAGGAUCACCCAUGUCGGAC [Same State - Theophylline A Attempt #2 (HarryS)],10.5
15,ACAUGAGGAUCACCCAUGUAUGACUAUCCUCGAGGACCGGUACGGCCGCCACUCGAAGGAGUGGCUCGCGAGUGCGCACUUGCGA [5' end],12.1
16,GGCACACAUGAGGAUCACCCAUGUGGCGAUACCAGUUGAUGGUAAAACCCUUGGCAGCGCCAGUCACAUGCAGAUAGUUACUGAA [theeternabot_sameState_MS2_Theo_A_32],15.8

row,Sequence,apparent KD of MS2 coat protein [nM]
1,AUCGUACCUGAGGAUACCAGCAUGUGAUCAUAACAUGAGGAUCACCCAUGUAAUCAGUGAUGCCCUUGGCAGCUUAGUCGAUACA [Same State - Theophylline B (Freestyle 7)],58.3
2,GGAGCUACGUCGGCCGCCACUAGCGGGUAUUGCGUGUACAUGAGGAUCACCCAUGUAAUAUGGCCUAGGACCGGGACGUAGCUCC [Bison],16.5
3,UGUAUGUGAUCUGAUACCAGCUUUGAUAACCUGAGGAUCACCCUGGUAAAGGCGAAAGCCAGCCCUUGGCAGCAGAUCGCAUACU,49.6
4,UGUAUGGACUGAAGGAGCGGUAGAUAACCUGAGGAUCACCCGGGUAAUAAAGGCGAAAGCCACCAGGUAGGUCGCAGUCCAUACU,262
5,GCUGCCAUACGAAGGAGCGCUGUUGCAAUGAGGCGAACAUGAGGAUCACCCAUGUGGCAGCAGCAGGUAGGUCGCGUAUGGCAGC [EAB #12],44.2
6,AAAACCUCACCUGAGGAACACCCAGGUGAUACCAGCCUGGAAACAGGCCCUUGGCAGCACCAGGUCAUCAAAGAUGACCAAAUAA [TheoAX 25 #OpenEnded #AlternativeMS2],21.3
7,AUAUGAUCAUAUGAUACCAGAAAUGGUAUUCCUUUCUUUCUUACAUGAGGAUCACCCAUGUUCCCUUGGCAGCAUAUGAUCAUAU [ETHB #1],153
8,UUAGAUAUGACAGAUACCAGCGUGUUGUAGAACAUGAGGAUCACCCAUGUAGUGAUCGAGCGCCCUUGGCAGCUGGUGUGUUUGG [7.S],319
9,ACAUGAGGGAUGGAUACCAGCGACAUGAGGAUCACCCAUGUAUGAGGAUCAGCCAUGUUAUGCCCUUGGCAGCCACGAACAUGAG [ACFMULLIN],37.2
10,UGUAUGGACUGAAGGAGCGGGUAAAUAACUUGAGGAUCACCCAGGUAAAAGGCGAAAGCCACCCAGGUAGGUCGCAGUCCAUACU,25.5
11,UCGUGUGUUUCGGAUACCAGUGAAAUCGAUACAUGAGGAUCACCCAUGUGAGAGGAUGUACACCCUUGGCAGCUGGCUGUAGCGG [yyzmullin],44.3
12,GAGGACAUGAGGAUCACCCAUGUAAAUGAUACCAGUUGAGAGAGAGGCCCUUGGCAGCGUAAACAUGACAGCGAGCGAGAGUGCG [ss-theoA-0],14.6
13,CACGGACGAGUGGAUCACCCUUGUAAUAACCGAGGACCGGUACGGCCGCCACUCGAAAACCGUGACCUGUACGAAAAGUGCAGGA,195
14,CCCAGUUAUAUCAAAGGAAUUAUACUCGAAGGAGCGUCAUAGUAGGCAGGUAGGUCGCGAGACAUGAGGAUCACCCAUGUAGAGA [pxpmullin],30.4
15,GGAUAGGACAGAAGGAGCGUGAGAUGCAAAGCAUCAUUCCUCACAUGAGGAUCACCCAUGUCACAGGUAGGUCGCUGUCCUAUCG [ArgBX 4],112
